These results are taken from patent US20190359693A1.

Holding throughout (assay): cell-based or functional assay
The target in assay [1] is HA of H3N2 A/Brisbane/10/2007 (influenza A virus).
The target of assay [2] is HA of H1N1 A/Puerto Rico/8/34-MA (influenza A virus).
Assay [3] concerns the target HA of H7N3 A/NIBRG/60 (A/mallard/NL/12/00) (influenza A virus).
Assay [4] deals with HA of H5N1 A/Vietnam/1194/04 (influenza A virus).
The target of assay [5] is HA of H3N2 A/Wisconsin/67/2005 (influenza A virus).
Assay [6] addresses HA of H5N1 A/PR8 H5N1 HK97 (influenza A virus).
In assay [7] the target is HA of H1N1 A/New Caledonia/20/1999 (influenza A virus).
Assay [8] addresses hemagglutinin (HA) of influenza virus B/Brisbane/60/08 (Victoria) (influenza B virus).
For assay [9], the target named is hemagglutinin (HA) of influenza virus B/Malaysia/2506/04 (Victoria) (influenza B virus).
The target in assay [10] is hemagglutinin (HA) of influenza virus B/Harbin/7/94 (Yamagata) (influenza B virus).
In assay [11] the target is hemagglutinin (HA) of influenza virus B/Lee/40 (Old) (influenza B virus) (UniProt P03460).
Assay [12] addresses hemagglutinin (HA) of influenza virus B/Florida/04/06 (Yamagata) (influenza B virus).
Assay [13] concerns the target HA of H3N2 A/HK/1/68 (influenza A virus) (UniProt Q91MA7).
The target of assay [14] is HA of H4 A/WF/HK/MPA892/06 (influenza A virus).
For assay [15], the target named is HA of H10N7 A/Chick/Germany/N/49 (influenza A virus).
The target in assay [16] is hemagglutinin (HA) of influenza A/waterfowl/Hong Kong/MPA892/06 (H4) (influenza A virus A/waterfowl/Hong Kong/MPA892/06 (H4)).
Assay [17] addresses hemagglutinin (HA) of influenza A/chicken/Germany/n/49 (H10N7) (influenza A virus A/chicken/Germany/n/49 (H10N7)).
The target of assay [18] is hemagglutinin (HA) of influenza A/New York/107/03 (PR8) (influenza A virus A/New York/107/03 (PR8)).
Assay [19] has as its target hemagglutinin (HA) of influenza A/Brisbane/10/07 (H3N2) (influenza A virus A/Brisbane/10/07 (H3N2)).
Assay [20] concerns the target HA of H1N1 A/Brisbane/59/07 (influenza A virus).
Assay [21] deals with hemagglutinin (HA) of influenza A/Vietnam/1194/04 (H5N1) (influenza A virus A/Vietnam/1194/04 (H5N1)).
Assay [22] concerns the target hemagglutinin (HA) of influenza A/California/07/09 (H1N1) (influenza A virus A/California/07/09 (H1N1)).
Assay [23] has as its target hemagglutinin (HA) of influenza A/New Caledonia/20/99 (H1N1) (influenza A virus A/New Caledonia/20/99 (H1N1)).
Assay [24] has as its target hemagglutinin (HA) of influenza A/Hong Kong/1/68 (H3N2) (influenza A virus A/Hong Kong/1/68 (H3N2)) (UniProt Q91MA7).
For assay [25], the target named is HA of B/Florida/04/2006 (Yamagata) (influenza B virus).
For assay [26], the target named is hemagglutinin (HA) of influenza virus H5N1 A/Vietnam/1194/04 (influenza A virus).
Assay [27] has as its target hemagglutinin (HA) of influenza virus H7N9 A/Anhui/1/13 (influenza A virus).
Assay [28] concerns the target hemagglutinin (HA) of influenza virus H3N2 A/Brisbane/10/07 (influenza A virus).
The target in assay [29] is hemagglutinin (HA) of influenza virus H7N3 A/NIBRG/60 (A/mallard/Netherlands/12/00) (influenza A virus).

B1: SD1076 (VHH)
VHH: EVQLVESGGGLVQAGGSLTLSCAGSGFAFSIATMGWYRQAPGKQRELVADITSGGSTNYADSVKGRFTISRDNAKNTVYLQMNSLKPEDTAVYYCNADSLATGWRQYSYWGKGTQVTVSS
On to B1, for which the VNA titer was over 1000 nM in assay [1]; 8.7 nM in [2]; over 1000 nM in [3]; 84.7 nM in assay [4]; over 1000 nM in [5]; 66.8 nM in assay [6]. In [7], the VNA titer was 22.1 nM.

B2: MD1222 (bispecific antibody)
chain: EVQLVESGGGLVQPGGSLRLSCAATGFTLENKAIGWFRQTPGSEREGVLCISKSGSWTYYTDSMRGRFTISRDNAENTVYLQMDSLKPEDTAVYYCATTTAGGGLCWDGTTFSRLASSWGQGTQVTVSSAAAGGGGSGGGGSGGGGSGGGGSGGGGSGGGGSGGGGSEVQLVESGGGLVQPGGSLKLSCAASGFTFSTSWMYWLRQAPGKGLEWVSVINTDGGTYYADSVKDRFTISRDNAKDTLYLQMSSLKSEDTAVYYCAKDWGGPEPTRGQGTQVTVSS
Take B2: the neutralization titer in [8] came to 3 nM; in assay [9] it was 3.6 nM; in assay [10], 7.2 nM; in assay [11] it was 12.7 nM; in [12], 2.1 nM.

B3: SD1069 (VHH)
VHH: EVQLVESGGGLVQAGDSLRLSCAASGPTFGMSAMGWFRQAPGKEREFVAAISGLGNPNYSDDVKGRFTISRENGRNTVYLQMNSLKPEDTAVYYCAQRKVYHVQGGDRPQAYDYWGQGTQVTVSS
As to B3, the VNA titer in assay [1] is over 1000 nM; in [2], 12.8 nM; in assay [3] it was over 1000 nM; in assay [4] it was 74 nM; in [13], over 1000 nM; in assay [6], 242 nM. The values for the VNA titer in [14], in assay [15] and in assay [7] were over 1000 nM, over 1000 nM and 20.8 nM, respectively.

B4: SD3097 (VHH)
VHH: EVQLLESGGGLVQPGGSLRLSCAASGRTYAMGWFRQAPGKEREFVAAINALGTRTYYADSVKGRFTISRDNSKNTLYLQMNSLRAEDTAVYYCTAQGQWRAAPVAVAAEYEFWGQGTLVTVSS
As for B4, the VNA IC50 came to 6 nM in assay [16], 6 nM in assay [17], 8 nM in assay [18] and 17 nM in assay [19].

B5: SD1049 (VHH)
VHH: EVQLVESGGGLVQAGGSLRLSCAASGRTLSLYSVGWFRQAPGKEREFVATIGWNSGRTFYVDSMKGRFTISRDNAKNTVYLQMNDLKVEDTAVYYCAAAKGPLRLSNQADYWGQGTQVTVSS
B5: the VNA titer in [1] is 19.1 nM; in assay [3] it was 115 nM; in [4], over 1000 nM; in assay [5] it was over 1000 nM; in [20], over 1000 nM; in assay [7], over 1000 nM.

B6: MD1224 (VHH)
chain: EVQLVESGGGLVQPGGSLKLSCAASGFTFSTSWMYWLRQAPGKGLEWVSVINTDGGTYYADSVKDRFTISRDNAKDTLYLQMSSLKSEDTAVYYCAKDWGGPEPTRGQGTQVTVSSAAAGGGGSGGGGSGGGGSGGGGSGGGGSGGGGSGGGGSEVQLVESGGGLVQPGGSLKLSCAASGFTFSTSWMYWLRQAPGKGLEWVSVINTDGGTYYADSVKDRFTISRDNAKDTLYLQMSSLKSEDTAVYYCAKDWGGPEPTRGQGTQVTVSS
For B6, the neutralization titer turned out to be 4.1 nM in assay [8]; 2.7 nM in assay [9]; 4.5 nM in assay [10]; 33 nM in [11]; 0.8 nM in [12].

B7: SD3022 (VHH)
VHH: EVQLVESGGGVVQPGGSLRLSCAASISIFDIYAMDWYRQAPGKQRELVAVSFRDGSTYYADSVKGRFTISRDNSKNTLYLQMNSLRPEDTAVYLCHVSLYRDPLGVAGGIGVYWGKGALVTVSS
As to B7, the VNA IC50 in [21] was determined as 20 nM; in assay [22] it was 3 nM; in assay [23], 8 nM; in [19], 632 nM.

B8: SD3030 (VHH)
VHH: EVQLVESGGGLVQPGGSLRLSCAVSISIFDIYAMDWYRQAPGKQRDLVATSFRDGSTNYADSVKGRFTISRDNAKNTLYLQMNSLKPEDTAVYLCHVSLYRDPLGVAGGIGVYWGKGALVTVSS
Regarding B8, the VNA IC50 worked out at 20 nM in assay [21]; 126 nM in [24]; 3 nM in assay [22]; 8 nM in [23]; 274 nM in assay [19].

B9: SD3029 (VHH)
VHH: EVQLVESGGGLVQPGGSLRLSCAVSISIFDIYAMDWYRQAPGKQRDLVATSFRDGSTNYADSVKGRFTISRDNAKNTLYLQMNSLKPEDTAVYLCHVSLYRDPLGVAGGLGVYWGKGALVTVSS
B9: the VNA IC50 in [21] is 20 nM; in [24] it was 251 nM; in [22] it was 3 nM; in assay [23], 4 nM; in [19], 632 nM.

B10: SD3099 (VHH)
VHH: EVQLVESGGGLVQPGGSLRLSCAASGRTLSIYSMGWFRQAPGKEREFVATIGWNSGRTFYPDSVKGRFTISRDNSKNTLYLQMNSLRAEDTAVYYCAAAKGPLRLSSQADYWGQGTLVTVSS
On to B10, for which the VNA IC50 in assay [16] is 2 nM; in assay [17], 5 nM; in [18], 16 nM; in assay [19] it was 3 nM.

B11: SD1070 (VHH)
VHH: EVQLVESGGGLVQAGGSLRISCAASGRTFSIYSMGWFRQAPGKEREFVATIGWNSGRTFYADSMKERFTISADNARNTLYLQMNSLKFEDTAVYYCAAAKGPLRLSSQADYWGQGTQVTVSS
B11: the VNA titer is 15.3 nM in assay [1]; over 1000 nM in assay [2]; 366 nM in assay [3]; over 1000 nM in assay [4]; over 1000 nM in assay [5]; over 1000 nM in assay [25]. In addition, the VNA titer in assay [7] is over 1000 nM.

B12: MD2313 (bispecific antibody)
chain: EVQLVESGGGLVQAGDSLRISCAASGRTLSIYSMGWFRQAPGKEREFVATIGWNSGRTFYPDSLKGRFTISRDNARNTLYLQMNNLRPEDTAVYYCAAAKGPLRLSSQADYWGQGTQVTVSSGGGGSGGGGSEVQLVESGGGLVQAGDSLRISCAASGRTLSIYSMGWFRQAPGKEREFVATIGWNSGRTFYPDSLKGRFTISRDNARNTLYLQMNNLRPEDTAVYYCAAAKGPLRLSSQADYWGQGTQVTVSSGGGGSGGGGSEVQLVESGGGLVQPGGSLRLSCAATGFTLENKAIGWFRQTPGSEREGVLCISKSGSWTYYTDSMRGRFTISRDNAENTVYLQMDSLKPEDTAVYYCATTTAGGGLCWDGTTFSRLASSWGQGTQVTVSS
Consider B12, for which the average neutralization titer is over 1000 nM in assay [26], 21.7 nM in [27], 7.7 nM in [28] and 6.5 nM in assay [29].

B13: SD2020 (VHH)
VHH: EVQLVESGGGLVQPGGSLRLSCAAAGGAFNRQLVAWFRQAPGKKREFVATVTTSGGSSYYADSVKGRFTISRDTAKNTVALQMNSLKAEDAAVYYCAARDSFTVAPYYPPESYAYWGQGTQVTVSS
On to B13, for which the VNA titer in assay [1] is 9.3 nM; in assay [3], over 1000 nM; in [4], over 1000 nM; in [5], 304 nM.
